Measured values taken from IntAct's records for PubMed 24165923.

B1: R-spondin-1 (Homo sapiens), Q2MKA7 (parent)
chain: MRLGLCVVALVLSWTHLTISSRGIKGKRQRRISAEGSQACAKGCELCSEVNGCLKCSPKLFILLERNDIRQVGVCLPSCPPGYFDARNPDMNKCIKCKIEHCEACFSHNFCTKCKEGLYLHKGRCYPACPEGSSAANGTMECSSPAQCEMSEWSPWGPCSKKQQLCGFRRGSEERTRRVLHAPVGDHAACSDTKETRRCTVRRVPCPEGQKRRKGGQGRRENANRNLARKESKEAGAGSRRRKGQQQQQQQGTVGPLTSAGPA

Variants of: B1
Settings: with znrf3_human ZNRF3, Q9ULT6
Sequence of znrf3_human ZNRF3, Q9ULT6 (Q9ULT6 whole entry): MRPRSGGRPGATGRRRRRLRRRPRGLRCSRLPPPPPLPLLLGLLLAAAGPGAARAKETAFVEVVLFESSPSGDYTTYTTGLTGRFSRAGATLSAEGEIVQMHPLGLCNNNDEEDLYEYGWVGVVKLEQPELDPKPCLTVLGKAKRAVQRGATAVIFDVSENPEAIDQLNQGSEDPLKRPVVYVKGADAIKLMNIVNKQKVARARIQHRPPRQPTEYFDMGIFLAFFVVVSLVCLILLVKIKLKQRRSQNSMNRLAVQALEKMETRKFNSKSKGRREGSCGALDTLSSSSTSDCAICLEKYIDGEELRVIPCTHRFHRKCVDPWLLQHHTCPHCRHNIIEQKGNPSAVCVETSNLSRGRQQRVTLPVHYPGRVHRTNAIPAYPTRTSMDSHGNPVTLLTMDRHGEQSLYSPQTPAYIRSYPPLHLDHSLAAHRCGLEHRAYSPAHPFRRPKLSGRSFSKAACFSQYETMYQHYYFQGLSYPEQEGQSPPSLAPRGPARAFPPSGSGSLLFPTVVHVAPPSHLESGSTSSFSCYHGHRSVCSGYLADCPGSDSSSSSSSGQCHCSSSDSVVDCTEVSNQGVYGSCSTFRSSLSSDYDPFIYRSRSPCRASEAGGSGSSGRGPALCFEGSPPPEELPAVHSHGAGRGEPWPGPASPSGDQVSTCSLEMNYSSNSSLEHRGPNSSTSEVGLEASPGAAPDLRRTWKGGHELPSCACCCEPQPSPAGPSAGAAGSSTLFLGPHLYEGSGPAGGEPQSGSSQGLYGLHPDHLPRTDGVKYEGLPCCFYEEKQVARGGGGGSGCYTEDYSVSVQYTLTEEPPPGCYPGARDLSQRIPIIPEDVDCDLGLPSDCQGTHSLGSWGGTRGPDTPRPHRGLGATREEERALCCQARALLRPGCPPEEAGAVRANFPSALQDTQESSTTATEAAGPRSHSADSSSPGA

effect of a mutation on the interaction | Variant
disrupting interaction | R66A
